Assay results as given in patent US20240424127A1 (BRIGHT PEAK THERAPEUTICS, published 2024).
Substitutions are numbered along the chain they refer to. Names and notes keep the numbering of the source. Bridges are numbered along the chain shown (N, C = ends). [ ]: non-standard residue; d: D form. glutaryl‑PEG9‑azide = glutaryl-PEG9-azide group on the N-terminal amine; hSer = N[C@@H](CCO)C(=O)O; Nle = CCCC[C@H](N)C(=O)O

T1: IL-7 receptor (IL-7Rα/γc heterodimer) on primary human T cells (human, UniProt P16871 21-459; P31785 23-369)
T1 sequence (looked up) 1: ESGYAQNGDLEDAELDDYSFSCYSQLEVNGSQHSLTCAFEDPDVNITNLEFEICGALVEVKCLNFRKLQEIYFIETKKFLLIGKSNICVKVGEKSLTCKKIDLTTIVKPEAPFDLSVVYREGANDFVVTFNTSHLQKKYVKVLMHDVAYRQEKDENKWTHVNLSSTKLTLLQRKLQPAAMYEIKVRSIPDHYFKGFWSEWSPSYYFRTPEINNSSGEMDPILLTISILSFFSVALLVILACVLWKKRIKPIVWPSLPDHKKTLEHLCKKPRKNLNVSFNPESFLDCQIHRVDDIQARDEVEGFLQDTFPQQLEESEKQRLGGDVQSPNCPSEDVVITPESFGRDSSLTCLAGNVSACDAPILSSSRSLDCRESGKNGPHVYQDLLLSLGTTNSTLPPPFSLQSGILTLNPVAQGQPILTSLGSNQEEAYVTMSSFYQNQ
T1 sequence (looked up) 2: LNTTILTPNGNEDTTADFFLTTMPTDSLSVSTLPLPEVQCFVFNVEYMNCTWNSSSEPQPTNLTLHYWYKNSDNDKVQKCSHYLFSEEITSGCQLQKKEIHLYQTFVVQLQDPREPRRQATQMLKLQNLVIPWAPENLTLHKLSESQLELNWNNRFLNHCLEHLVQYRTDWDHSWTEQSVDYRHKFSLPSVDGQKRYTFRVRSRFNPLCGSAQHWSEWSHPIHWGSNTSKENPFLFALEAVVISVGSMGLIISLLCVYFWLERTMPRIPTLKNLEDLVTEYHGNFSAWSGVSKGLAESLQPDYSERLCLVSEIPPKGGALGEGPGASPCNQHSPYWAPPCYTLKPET

T2: Recombinant Human IL-7R alpha/CD127 Fc Avi-tag Protein, CF (R&D Systems #AVI10317-050) (human, UniProt P16871 21-239)
T2 construct: Bought construct; It was loaded on streptavidin (SAX/SAX2) biosensors; not shown: Fc and Avi-tag of a bought protein
T2 sequence (looked up): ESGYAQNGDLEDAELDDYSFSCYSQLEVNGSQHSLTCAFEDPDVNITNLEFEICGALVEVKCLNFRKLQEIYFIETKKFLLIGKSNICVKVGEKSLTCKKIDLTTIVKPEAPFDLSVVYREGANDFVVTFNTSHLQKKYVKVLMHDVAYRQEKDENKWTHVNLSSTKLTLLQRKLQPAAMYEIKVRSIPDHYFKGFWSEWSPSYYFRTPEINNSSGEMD

B1: CMP-107, synthetic IL-7 V15W of SEQ ID NO: 5 with glutaryl-PEG9-azide at the N-terminus (ligand)
chain: {glutaryl‑PEG9‑azide}-DCDIEGKDGKQYESWL[Nle]VSIDQLLDS[Nle]KEIGSNCL[hSer]NEFNFFKRHICDANKEG[Nle]FLFRAARKLRQFLK[Nle]NSTGDF[hSer]LHLLKVSEGTTILLNCTGQVKGRKPAALGEAQPTKSL[hSer]ENKSLKEQKKLNDLCFLKRLLQEIKTCWNKIL[Nle]GTKEH-NH2
modifications: disulfide 34-129, 47-141, 2-92
notes: also called synthetic IL-7 with V15W
B2: CMP-114, CMP-108 conjugated to 30 kDa DBCO PEG at the N-terminus (ligand)
chain: DCDIEGKDGKQYESVL[Nle]VSIDQLLDS[Nle]KEIGSNCL[hSer]NEFNFFKRHICDANKEG[Nle]FLFRAARKLRQFLK[Nle]NSTGDF[hSer]LHLLKVSEGTTILLNCTGQVKGRKPAALGEAQPTKSL[hSer]ENKSLKEQKKLNDLCFLKRLLQEIKTCWNKIL[Nle]GTKEH-NH2
modifications: disulfide 34-129, 47-141, 2-92; not fully specified (N-terminus); also: N-terminal azide conjugated to 30 kDa DBCO-PEG
B3: CMP-036, synthetic IL-7 of SEQ ID NO: 3 (no N-terminal conjugation handle) (ligand)
chain: DCDIEGKDGKQYESVL[Nle]VSIDQLLDS[Nle]KEIGSNCL[hSer]NEFNFFKRHICDANKEG[Nle]FLFRAARKLRQFLK[Nle]NSTGDF[hSer]LHLLKVSEGTTILLNCTGQVKGRKPAALGEAQPTKSL[hSer]ENKSLKEQKKLNDLCFLKRLLQEIKTCWNKIL[Nle]GTKEH
modifications: ends and bridges not checked
B4: CMP-035, recombinant human native IL-7 with His-tag (ligand)
chain: DCDIEGKDGKQYESVLMVSIDQLLDSMKEIGSNCLNNEFNFFKRHICDANKEGMFLFRAARKLRQFLKMNSTGDFDLHLLKVSEGTTILLNCTGQVKGRKPAALGEAQPTKSLEENKSLKEQKKLNDLCFLKRLLQEIKTCWNKILMGTKEHVDHHHHHH
notes: also called WT IL-7 His; recombinant IL-7 (WT)
B5: CMP-117, recombinant IL-7 Q11F with His-tag (ligand)
chain: B4 chain with Q11F
B6: CMP-113, synthetic IL-7 C2A, C92A of SEQ ID NO: 10 with glutaryl-PEG9-azide at the N-terminus (ligand)
chain: {glutaryl‑PEG9‑azide}-DADIEGKDGKQYESVL[Nle]VSIDQLLDS[Nle]KEIGSNCL[hSer]NEFNFFKRHICDANKEG[Nle]FLFRAARKLRQFLK[Nle]NSTGDF[hSer]LHLLKVSEGTTILLNATGQVKGRKPAALGEAQPTKSL[hSer]ENKSLKEQKKLNDLCFLKRLLQEIKTCWNKIL[Nle]GTKEH
modifications: ends and bridges not checked

biological target: T1, IL-7 receptor (IL-7Rα/γc heterodimer) …; assay: cell-based or functional assay

EC50 pSTAT5, CD4 Memory [pM]	EC50 pSTAT5, CD4 Naive [pM]	EC50 pSTAT5, CD4 Treg	EC50 pSTAT5, CD8 Memory [pM]	EC50 pSTAT5, CD8 Naive [pM]	Binder
0.4	1	1.2 nM	34	6	B1
4	2	10 pM	4	5	B2
5	5	15 pM	6	6	B3
1	1	32 pM	6	2	B4
1	1	10 pM	2	1	B5
40	40	0.18 nM	60	50	B6

biological target: T2, Recombinant Human IL-7R alpha/CD127 Fc …; assay: BLI (Octet R8); CD127-Fc-Avi loaded on SAX2 sensor, IL-7 polypeptide as analyte

Kd [nM]	koff [s⁻¹]	kon [M⁻¹ s⁻¹]	Binder
22.5	0.0259	1.15e+06	B1

biological target: T2, Recombinant Human IL-7R alpha/CD127 Fc …; assay: as above; remark: another data set of the same source

Kd [nM]	koff [s⁻¹]	kon [M⁻¹ s⁻¹]	Binder
1.28	0.00698	5.47e+06	B4
